First the molecules themselves.
B1: CXCR4 (receptor, human, UniProt P61073 1-352, looked up)
chain: MEGISIYTSDNYTEEMGSGDYDSMKEPCFREENANFNKIFLPTIYSIIFLTGIVGNGLVILVMGYQKKLRSMTDKYRLHLSVADLLFVITLPFWAVDAVANWYFGNFLCKAVHVIYTVNLYSSVLILAFISLDRYLAIVHATNSQRPRKLLAEKVVYVGVWIPALLLTIPDFIFANVSEADDRYICDRFYPNDLWVVVFQFQHIMVGLILPGIVILSCYCIIISKLSHSKGHQKRKALKTTVILILAFFACWLPYYIGISIDSFILLEIIKQGCEFENTVHKWISITEALAFFHCCLNPILYAFLGAKFKTSAQHALTSVSRGSSLKILSKGKRGGHSSVSTESESSSFHSS
notes: whole, on cells; also called C-X-C Motif Chemokine Receptor 4; CXC receptor 4
B2: ADORA3-VC (receptor, human, UniProt P0DMS8 1-318, looked up)
chain: MPNNSTALSLANVTYITMEIFIGLCAIVGNVLVICVVKLNPSLQTTTFYFIVSLALADIAVGVLVMPLAIVVSLGITIHFYSCLFMTCLLLIFTHASIMSLLAIAVDRYLRVKLTVRYKRVTTHRRIWLALGLCWLVSFLVGLTPMFGWNMKLTSEYHRNVTFLSCQFVSVMRMDYMVYFSFLTWIFIPLVVMCAIYLDIFYIIRNKLSLNLSNSKETGAFYGREFKTAKSLFLVLFLFALSWLPLSIINCIIYFNGEVPQLVLYMGILLSHANSMMNPIVYAYKIKKFKETYLLILKACVVCHPSDSLDTSIEKNSE
notes: whole, on cells; Adenovirus-expressed in U-2 OS cells; not shown: VC155, C-terminal fragment of Venus
B3: ADCYAP1R1-VC (receptor, human, UniProt P41586 21-468, looked up)
chain: MHSDCIFKKEQAMCLEKIQRANELMGFNDSSPGCPGMWDNITCWKPAHVGEMVLVSCPELFRIFNPDQVWETETIGESDFGDSNSLDLSDMGVVSRNCTEDGWSEPFPHYFDACGFDEYESETGDQDYYYLSVKALYTVGYSTSLVTLTTAMVILCRFRKLHCTRNFIHMNLFVSFMLRAISVFIKDWILYAEQDSNHCFISTVECKAVMVFFHYCVVSNYFWLFIEGLYLFTLLVETFFPERRYFYWYTIIGWGTPTVCVTVWATLRLYFDDTGCWDMNDSTALWWVIKGPVVGSIMVNFVLFIGIIVILVQKLQSPDMGGNESSIYLRLARSTLLLIPLFGIHYTVFAFSPENVSKRERLVFELGLGSFQGFVVAVLYCFLNGEVQAEIKRKWRSWKVNRYFAVDFKHRHPSLASSGVNGGTQLSILSKSSSQIRMSGLPADNLAT
notes: as for B2
B4: EDNRB-VC (receptor, human, UniProt P24530 27-442, looked up)
chain: EERGFPPDRATPLLQTAEIMTPPTKTLWPKGSNASLARSLAPAEVPKGDRTAGSPPRTISPPPCQGPIEIKETFKYINTVVSCLVFVLGIIGNSTLLRIIYKNKCMRNGPNILIASLALGDLLHIVIDIPINVYKLLAEDWPFGAEMCKLVPFIQKASVGITVLSLCALSIDRYRAVASWSRIKGIGVPKWTAVEIVLIWVVSVVLAVPEAIGFDIITMDYKGSYLRICLLHPVQKTAFMQFYKTAKDWWLFSFYFCLPLAITAFFYTLMTCEMLRKKSGMQIALNDHLKQRREVAKTVFCLVLVFALCWLPLHLSRILKLTLYNQNDPNRCELLSFLLVLDYIGINMASLNSCINPIALYLVSKRFKNCFKSCLCCWCQSFEEKQSLEEKQSCLKFKANDHGYDNFRSSNKYSSS
notes: as for B2
B5: C5AR1-VC (receptor, human, UniProt P21730 1-350, looked up)
chain: MDSFNYTTPDYGHYDDKDTLDLNTPVDKTSNTLRVPDILALVIFAVVFLVGVLGNALVVWVTAFEAKRTINAIWFLNLAVADFLSCLALPILFTSIVQHHHWPFGGAACSILPSLILLNMYASILLLATISADRFLLVFKPIWCQNFRGAGLAWIACAVAWGLALLLTIPSFLYRVVREEYFPPKVLCGVDYSHDKRRERAVAIVRLVLGFLWPLLTLTICYTFILLRTWSRRATRSTKTLKVVVAVVASFFIFWLPYQVTGIMMSFLEPSSPTFLLLKKLDSLCVSFAYINCCINPIIYVVAGQGFQGRLRKSLPSLLRNVLTEESVVRESKSFTRSTVDTMAQKTQAV
notes: as for B2
B6: APLNR-VC (receptor, human, UniProt P35414 1-380, looked up)
chain: MEEGGDFDNYYGADNQSECEYTDWKSSGALIPAIYMLVFLLGTTGNGLVLWTVFRSSREKRRSADIFIASLAVADLTFVVTLPLWATYTYRDYDWPFGTFFCKLSSYLIFVNMYASVFCLTGLSFDRYLAIVRPVANARLRLRVSGAVATAVLWVLAALLAMPVMVLRTTGDLENTTKVQCYMDYSMVATVSSEWAWEVGLGVSSTTVGFVVPFTIMLTCYFFIAQTIAGHFRKERIEGLRKRRRLLSIIVVLVVTFALCWMPYHLVKTLYMLGSLLHWPCDFDLFLMNIFPYCTCISYVNSCLNPFLYAFFDPRFRQACTSMLCCGQSRCAGTSHSSSGEKSASYSSGHSQGPGPNMGKGGEQMHEKSIPYSQETLVVD
notes: as for B2
B7: GALR1-VC (receptor, human, UniProt P47211 1-349, looked up)
chain: MELAVGNLSEGNASWPEPPAPEPGPLFGIGVENFVTLVVFGLIFALGVLGNSLVITVLARSKPGKPRSTTNLFILNLSIADLAYLLFCIPFQATVYALPTWVLGAFICKFIHYFFTVSMLVSIFTLAAMSVDRYVAIVHSRRSSSLRVSRNALLGVGCIWALSIAMASPVAYHQGLFHPRASNQTFCWEQWPDPRHKKAYVVCTFVFGYLLPLLLICFCYAKVLNHLHKKLKNMSKKSEASKKKTAQTVLVVVVVFGISWLPHHIIHLWAEFGVFPLTPASFLFRITAHCLAYSNSSVNPIIYAFLSENFRKAYKQVFKCHIRKDSHLSDTKESKSRIDTPPSTNCTHV
notes: as for B2
B8: CALCR-VC (receptor, human, UniProt P30988 25-474, looked up)
chain: AFSNQTYPTIEPKPFLYVVGRKKMMDAQYKCYDRMQQLPAYQGEGPYCNRTWDGWLCWDDTPAGVLSYQFCPDYFPDFDPSEKVTKYCDEKGVWFKHPENNRTWSNYTMCNAFTPEKLKNAYVLYYLAIVGHSLSIFTLVISLGIFVFFRSLGCQRVTLHKNMFLTYILNSMIIIIHLVEVVPNGELVRRDPVSCKILHFFHQYMMACNYFWMLCEGIYLHTLIVVAVFTEKQRLRWYYLLGWGFPLVPTTIHAITRAVYFNDNCWLSVETHLLYIIHGPVMAALVVNFFFLLNIVRVLVTKMRETHEAESHMYLKAVKATMILVPLLGIQFVVFPWRPSNKMLGKIYDYVMHSLIHFQGFFVATIYCFCNNEVQTTVKRQWAQFKIQWNQRWGRRPSNRSARAAAAAAEAGDIPIYICHQELRNEPANNQGEESAEIIPLNIIEQESSA
notes: as for B2
B9: TACR3-VC (receptor, human, UniProt P29371 1-465, looked up)
chain: MATLPAAETWIDGGGGVGADAVNLTASLAAGAATGAVETGWLQLLDQAGNLSSSPSALGLPVASPAPSQPWANLTNQFVQPSWRIALWSLAYGVVVAVAVLGNLIVIWIILAHKRMRTVTNYFLVNLAFSDASMAAFNTLVNFIYALHSEWYFGANYCRFQNFFPITAVFASIYSMTAIAVDRYMAIIDPLKPRLSATATKIVIGSIWILAFLLAFPQCLYSKTKVMPGRTLCFVQWPEGPKQHFTYHIIVIILVYCFPLLIMGITYTIVGITLWGGEIPGDTCDKYHEQLKAKRKVVKMMIIVVMTFAICWLPYHIYFILTAIYQQLNRWKYIQQVYLASFWLAMSSTMYNPIIYCCLNKRFRAGFKRAFRWCPFIKVSSYDELELKTTRFHPNRQSSMYTVTRMESMTVVFDPNDADTTRSSRKKRATPRDPSFNGCSRRNSKSASATSSFISSPYTSVDEYS
notes: as for B2
B10: CHRM1-VC (receptor, human, UniProt P11229 1-460, looked up)
chain: MNTSAPPAVSPNITVLAPGKGPWQVAFIGITTGLLSLATVTGNLLVLISFKVNTELKTVNNYFLLSLACADLIIGTFSMNLYTTYLLMGHWALGTLACDLWLALDYVASNASVMNLLLISFDRYFSVTRPLSYRAKRTPRRAALMIGLAWLVSFVLWAPAILFWQYLVGERTVLAGQCYIQFLSQPIITFGTAMAAFYLPVTVMCTLYWRIYRETENRARELAALQGSETPGKGGGSSSSSERSQPGAEGSPETPPGRCCRCCRAPRLLQAYSWKEEEEEDEGSMESLTSSEGEEPGSEVVIKMPMVDPEAQAPTKQPPRSSPNTVKRPTKKGRDRAGKGQKPRGKEQLAKRKTFSLVKEKKAARTLSAILLAFILTWTPYNIMVLVSTFCKDCVPETLWELGYWLCYVNSTINPMCYALCNKAFRDTFRLLLLCRWDKRRWRKIPKRPGSVHRTPSRQC
notes: as for B2

One experiment deals with T1, ADRB2 (human, UniProt P07550 1-413).
T1 construct: whole, on cells; Untagged: adenovirus-expressed in U-2 OS or MDA-MB-231 cells, or endogenous in patient derived cells and PDX tissue; also called Adrenoceptor Beta 2; Ad-ADRB2
Briefly: proximity ligation assay, GBM patient derived cells (endogenous receptors). The procedure: (§1) To perform PLA with PDC samples, the patient derived cells were plated and fixed with 4% PFA on sixteen-well tissue culture slides. […] Slides were then washed and incubated (1 h at 37° C.) with secondary anti-rabbit and anti-mouse antibodies conjugated with plus and minus Duolink II PLA probes. Slides were washed again and then incubated with ligation-ligase solution (30 min at 37° C.) followed by incubation with amplification-polymerase solution (2 h at 37° C.).
(§2) PDCs were seeded in 96-chamber slide at 100000 ea /well in 100 ul culture media. […] Slides were then washed and incubated (1 h at 37° C.) with secondary anti-rabbit and anti-mouse antibodies conjugated with plus and minus Duolink II PLA probes. Slides were washed again and then incubated with ligation-ligase solution (30 min at 37° C.) followed by incubation with amplification-polymerase solution (2 h at 37° C.).
Take B1: the binding result was “binds”.

In a further experiment the target is T2, CHRM1 (human, UniProt P11229 1-460).
T2 construct: whole, on cells; Untagged: adenovirus-expressed in U-2 OS or MDA-MB-231 cells, or endogenous in patient derived cells; also called Cholinergic Receptor Muscarinic 1
T2 sequence (looked up): B10 chain
The experiment is described as above. Here is the method: as §1, §2
Regarding B1, the binding result is listed as “binds”.

For another experiment, the target named is T3, CXCR4-VN (human, UniProt P61073 1-352).
T3 construct: whole, on cells; Adenovirus-expressed in U-2 OS cells; also called CXCR4 fused with N-terminal fragment of Venus; not shown: VNm10, N-terminal fragment of Venus (VN154 variant with L46F and L64F)
As to the kind of experiment: BiFC, U-2 OS cells, CXCR4-VN & GPCRx-VC; score=(positive cells/total cells)x100. The procedure:
(§3) Images of about 200 cells from each well were analyzed with Multi-target analysis software in IN Cell Developer ToolBox (GE Healthcare, Waukesha, Wis.). Cell boundary was marked based on Hoechst signal, and fluorescence intensity per cell was measured. Cells with fluorescence intensities higher than background level were considered as BiFC positive cells. […] Positive cells were determined, and positive cell count ratio (“BiFC score”) was calculated as (positive cells/total cells)×100 (see Table 4 below).
As for B2, the BiFC score stood at 43.

B3 displayed a BiFC score of 23.

B4 registered a BiFC score of 41.

Take B5: the BiFC score is 42.

Molecule B6 registered a BiFC score of 63.

The molecule B7 showed a BiFC score of 60.

The molecule B8 had a BiFC score of 53.

B9 gave a BiFC score of 33.

On to B10, for which the BiFC score worked out at 24.

Another experiment concerns the target T3, CXCR4-VN. The description is as above. This is another data set of the same source. Here is the method: as §3
The molecule B6 came in with a BiFC score of 63.

For B7, the BiFC score worked out at 60.

The record behind these values is US20190183976A1 (GPCR THERAPEUTICS, published 2019).
